Laboratory results taken from the nanobody polyreactivity screen of Harvey et al. (2022).

Assay: yeast display, Sf9 membrane polyspecificity reagent, FACS + sequencing; frameworks hold sequencing errors
How it was run: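 Genes from sorted yeast were amplified by colony PCR, read by MiSeq 2 × 250 sequencing and filtered on CDR length. These cells carried a synthetic nanobody library in Saccharomyces cerevisiae BJ5465 and were sorted by FACS into low and high (top ~1%) gates on anti-HA and streptavidin fluorescence. Polyreactivity is labelled according to the gate of origin.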

| Sequence | polyreactivity (PSR sort gate) |
| --- | --- |
| QVQLVESGGGLVQAGGSLRLSCAASGFTFVFYAMGWYRQAPGKERELVAAISSRGGSTYYADSVKGRFTISRDNAKNTVDLQMNSLKPEDTAVYYCNVVSTYWTTYEEYYWGQGTQVTVSS | high polyreactivity |
| QVQLVESGGGLVQAGGSLRLSCAASGSTFVINAMGWYRQAPGKERELVAAIDFSGGSTYYADSVKGRFTISRDNAKNTVYLQMNSLKPEDTAVYYCAAVLSSYGYGGYTWYDYEYWGKGTQVTVSS | high polyreactivity |
| QVQLVESGGGLVQAGAILRLSCAASGYIFVSYYLGWYRQAPGKEREVVAAISWRGGSTFYADSVKGRFTISRDNAKNTVYLQMNSLKPEDTAVFYCAVDDWLDWLFADFGYWGQGTQVTVSS | low polyreactivity |
| QVQLVESGGGLVQAGGSLRLSCAASGSIFVNYAMGWYRQAPGKERELVAAITDGGRTYYADSVKGRFTISRDNAKNTVYLQMNSLKPEDTAVYYCAVDGIRYWGSRDESGYDYWGQGTQVTVSS | low polyreactivity |
| QVQLVESGVRLVQAGGSLRLTCAASGNTFVAYAMGWYRQAPGKERDLVAGITRGGTTYYADSVKGRFTISRDNAKNSVYLQMNSLKPEDTAEYDCAARLGYRYNYWGQGTQVTVSS | high polyreactivity |
| QVQLVESGGGLVQAGGSLRLSCAASGGIFQGYAMGWYRQAAGKERELVAAITRGGSTNYADSVKGRFTISRDNAKNTVYLQMNSLKPEDTAVYYFAARPRWFKGYDYWGQGTQVTVSS | high polyreactivity |
| QVQLVESGGGLVQAGGSLRLSCAASGSIFEPNAMGWYRQAPGTERELVAAISWNDGDTYYADSVKGRFTISRDNAKNTVYFQMNSLKPEDPAVYYCAAAISLYSYDYWGQGTQVTVSS | low polyreactivity |
| QVQLVESGGGLVQAGGILRLSCAASGRIFTPYTMGWYRQAPGKERELVATITWSGGSTYYADSVKGRFTISRDNAKNTVYLQMNSLKPEDTAVYYCAARPIYVWAEYDYWGQGTQVTVSS | low polyreactivity |
| QVQLVESGGGLVQAGGSLRLSCAATGRTFQDNAMGWYRQAPGKERELVAAISWRGGSTNYADSVKGRFTISRDNAKNTVYLQMNSLKPEDTAVYYCNRDPRKYGKLDYWGQGTQVTVSS | low polyreactivity |
| QVQVVESGGGLVKAGGSLRLSCAASGIIFVYYAMGWSRQAPGKERELVAAITSDGGRTYYADSVKGRFTISRDNAKNTVYLQMNSLKPEDTAVYYWAARTLYRGIKGYNYWGQGTQVTVSS | high polyreactivity |
| QVQLVESGGGLVQAGGSLRLSCAASGRIFVSNAMGWYRLAPGKERELVATISRSGGNTYYADSVKGRFTISRDNAKNTVYLQMNSLKPEYTAVYYSNSVSRRSYVKYDYWRQGTQVTVSS | high polyreactivity |
| QVQLVESGGGLVQAGGSLRLSCAASGSIFAYNAMGWYIQSPGTERELVAAISSSGGSTTYADSVKGRFTISRDNAKYTVYLQMNSLKPEDTAVYYCNAAWRRSRYYYWGQGTQVTVSS | high polyreactivity |
| QVQLVESGGGLVQAGGSLRLSCAASGFIFDVNAMGWYRQAPGKERELVATISKRGGTTYYADSVKGRFTISRDNAKNTVYLQMNSLKPEDTAVYYCAARHQTLRSYRYDYWGQGTQVTVSS | low polyreactivity |
| QVQLVESGGGLVQAGGSLRLSCAASGSTLAGYAMGWSRQAPGKERELVAAITRRGGRTYYADSVKGRFTISRDNAKNTVYLQMNSLKPEDTAVYYCAAQRSVKVDYWGQGTQVTVSS | high polyreactivity |
| QVQLVESGGGLVQAGGSLRLSSAASGRTFRYYAMGWYRQAPGKERELVASISDGGSTNYADSVKGRFTISRDNAKNTVYLQMNSLKPEDTAVYYCAADGWWQYDYWGQGTQVTVSS | low polyreactivity |
| QGHLVESGGGLVQAGGSLRLSCAASGVTFYTYDMGWYRQAPGKERELVAGIDWSGGSTYYADSVNGRFTISRDNAKNTVDLLMNSLKPEYTAVYYCASDYYYASQMDYWGQGTQVTVSS | low polyreactivity |

| Sequence | polyreactivity (PSR sort gate) |
| --- | --- |
| QVQLVESGGGLVQAGGSLRLSCAASGRTFSPYAMGWYRQAPGKERELVAAISWIGGSTYYADSVKGRFTISRDNAKNTVYLQMNSLKPEDTAVYYCAADKSVFSDSHAVSMIYRYDYWGQGTQVTVSS | low polyreactivity |
| QVQLVESGGGLVQAGGSLRLSCAASGRTFYTNAMGWYRQARGKERELVAGISWGDGNTYYADSVKWRFTISRDNAKNTVYLQMNSLKPEDTALYYCAVTYIILWSYSHTEFDYWGQGNQVTVSS | low polyreactivity |
| QVQLVESGGGLVQAGGSLRLSCAASGITFIKNAMGWYRQAPGKERELVAAISRSGGRTYYADSVKGRFTISRDNAKNTVYLQMNSLKPEYTAVYYCAAVTQRSYIYDYWGQGTQVTVSS | high polyreactivity |
| QFQLVESGGGLVQAGGSLRLSCAASGSTFGVYALGWYRQAPGKARELVATINSGGSTNYADSVKRRFTSSRDNAKNTVYLQMTSLTPEDTAVYYCAAGPFWQDFYVYEYDYWGQGTQVTVSS | low polyreactivity |
| QVQLVESGGGLVQAGGSLRLSCAASGRTFSAYAMGWYRQAPGKERELVAAISTNVGSTYYADSVKGRFTISRDTAKNTVYLQMNSLKPEDTAVYYCAKSWTLSGWNYYYWGQGTQVTVSS | high polyreactivity |
| QVQLLESGGGLVQAGGSLRLSCPASGRIFGSYAMRSYRKAPGKERDFVAAISRTGGSTYYADSVKGRFTISRDNAKNTVYLQFTSLKPEDTAVYYCAASYRWRFVRGYYWGQGTQVNVSS | high polyreactivity |
| QVQLVESGGGLVQAGGSLRLSCAASGSIFGYYAKGWYRQAPGKERELVAAIDSGGGSTYYADSVRGRVTISRDNAKNTVYIQMNRLKPEDTAVYYCAAVSYSYPSLLYEYWGQGTQVTVSS | low polyreactivity |
| QVQLVESGGGLVQAGGSLRLSCAASGFIFVYNDMGWYRPAPGKERELVAAISTSGGSTYYADSVKGRFTISRDNAKNTVYLQMNSLKPEDTAVYYCAAGPSYYPFFWPDFEYWGQGTQVTVSS | high polyreactivity |
| QVQLVESGGGLVQAGGSLRLSCAASGFILRYYAMGWYRPAPGNERELVAAISSGGGTYYADSVKGRFTISRDNAKNTVYLQMNSLKPEDTAVYYCNKASTSYYRFNYWGQGTQVTVSS | high polyreactivity |
| QVHLVESGGGLVQAGGSLRLSCAASGRTFTRYTMGCYRQAPGKESELVAAISRRGGSTYYADSVKGRFTISRHNAKNTVYLQMNSLKPEDTAFYYCNADYVPGRPSFIYDYWGQGTQVTVSS | high polyreactivity |
| QVQLVESGGGLVQAGGSLRLSCAASGRTFTGNAMGWYRQAPGKERELVAAISQRGGRTNYADSVKGRFTISRDNAKNTVYLQMHSLKPEDTAVYYCAADQSYPKRLPSFEYWGQGTQVTVSS | low polyreactivity |
| QVQLVESRGGLVQAGGSLRLSCAASGSIFGTNAMGRNRQAPGKERELVAAINSGGSTNYADSVKGRFTISRDNAKNTVYLQMNSLKPEDTAVYYCAADEGLWSPSRNAYDYDYWGQGTQVTVSS | low polyreactivity |
| QVQLVESGGGLVQAGGSLRLSCAASGFTFSFYAMGWYRQAPGKERELVAAITWSGGNTYYADSVKGRFTISRDNAKNTVDLQMNSLKPEDTAVYYCAARGPASVRYYYWGQGTQVTVSS | high polyreactivity |
| QVQLVESGGGLVQAGGSLRLSCAASGSTFYFNAMGWYRQAPGKERELVAGIRYSGSSTYYADSVKGRFTISRDNAKNTVYLQMNSLKPEDTAVYYCAARYSVYPRVSKYSYRFNYWGQGNQVTVSS | high polyreactivity |
| QVQLVESGGGLVQAGGSLRLSCAASGSTYPGNAMGWYRQAPGNERELVALINDGADTNYADSVKGRFTISRDNAKNTVYLQMNSLKPEDTAVYYCAKRSLYPTYDYWGQGTQVTVSS | low polyreactivity |
| QVQLVESGGGLVQAGGSLRLSCAASGSIFSYYAMGWYRQAPGKERELVATISWSGGSTYYADSVKGRFTISRDNAKNTVYLQMNSLKPEDTAVYYCAARKYGQRYRRDYWGQGTQVTVSS | low polyreactivity |
